From paper PMC3479137

Experiments:
[1] = molecular target: fHbp_10 (1.P10) with D184 replaced by K184 (Neisseria meningitidis); experiment: SPR; ProteOn XPR36 (BioRad); fHbp immobilized on a ProteOn GLM sensor chip; increasing concentrations of fH67 injected at 40 µl/min, dissociation 300 seconds; KD calculated with ProteOn manager software; average KD
[2] = molecular target: fHbp_10 (1.P10), factor H binding protein with aspartic acid at position 184 (Neisseria meningitidis) (UniProt E6MV22); experiment: as above
Chain of fHbp_10 (1.P10), factor H binding protein with aspartic acid at position 184 (Neisseria meningitidis) (E6MV22 20-274): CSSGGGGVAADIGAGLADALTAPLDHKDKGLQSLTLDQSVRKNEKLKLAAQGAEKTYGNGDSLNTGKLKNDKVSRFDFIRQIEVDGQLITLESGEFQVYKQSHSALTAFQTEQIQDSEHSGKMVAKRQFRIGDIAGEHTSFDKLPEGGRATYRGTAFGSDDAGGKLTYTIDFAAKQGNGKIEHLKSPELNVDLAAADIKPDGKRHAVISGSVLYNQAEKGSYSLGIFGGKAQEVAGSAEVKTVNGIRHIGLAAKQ

[3] = molecular target: fHbp subfamily B (Neisseria meningitidis) (UniProt Q9JXV4); details: cited from earlier work
Chain of fHbp subfamily B (Neisseria meningitidis) (Q9JXV4 20-274): as the sequence (E6MV22 20-274) above

[4] = molecular target: fHbp subfamily A (Neisseria meningitidis) (UniProt Q9JXV4); details: cited from earlier work
Chain of fHbp subfamily A (Neisseria meningitidis) (Q9JXV4 20-274): as the sequence (E6MV22 20-274) above

Chain of factor H (P08603 19-1231): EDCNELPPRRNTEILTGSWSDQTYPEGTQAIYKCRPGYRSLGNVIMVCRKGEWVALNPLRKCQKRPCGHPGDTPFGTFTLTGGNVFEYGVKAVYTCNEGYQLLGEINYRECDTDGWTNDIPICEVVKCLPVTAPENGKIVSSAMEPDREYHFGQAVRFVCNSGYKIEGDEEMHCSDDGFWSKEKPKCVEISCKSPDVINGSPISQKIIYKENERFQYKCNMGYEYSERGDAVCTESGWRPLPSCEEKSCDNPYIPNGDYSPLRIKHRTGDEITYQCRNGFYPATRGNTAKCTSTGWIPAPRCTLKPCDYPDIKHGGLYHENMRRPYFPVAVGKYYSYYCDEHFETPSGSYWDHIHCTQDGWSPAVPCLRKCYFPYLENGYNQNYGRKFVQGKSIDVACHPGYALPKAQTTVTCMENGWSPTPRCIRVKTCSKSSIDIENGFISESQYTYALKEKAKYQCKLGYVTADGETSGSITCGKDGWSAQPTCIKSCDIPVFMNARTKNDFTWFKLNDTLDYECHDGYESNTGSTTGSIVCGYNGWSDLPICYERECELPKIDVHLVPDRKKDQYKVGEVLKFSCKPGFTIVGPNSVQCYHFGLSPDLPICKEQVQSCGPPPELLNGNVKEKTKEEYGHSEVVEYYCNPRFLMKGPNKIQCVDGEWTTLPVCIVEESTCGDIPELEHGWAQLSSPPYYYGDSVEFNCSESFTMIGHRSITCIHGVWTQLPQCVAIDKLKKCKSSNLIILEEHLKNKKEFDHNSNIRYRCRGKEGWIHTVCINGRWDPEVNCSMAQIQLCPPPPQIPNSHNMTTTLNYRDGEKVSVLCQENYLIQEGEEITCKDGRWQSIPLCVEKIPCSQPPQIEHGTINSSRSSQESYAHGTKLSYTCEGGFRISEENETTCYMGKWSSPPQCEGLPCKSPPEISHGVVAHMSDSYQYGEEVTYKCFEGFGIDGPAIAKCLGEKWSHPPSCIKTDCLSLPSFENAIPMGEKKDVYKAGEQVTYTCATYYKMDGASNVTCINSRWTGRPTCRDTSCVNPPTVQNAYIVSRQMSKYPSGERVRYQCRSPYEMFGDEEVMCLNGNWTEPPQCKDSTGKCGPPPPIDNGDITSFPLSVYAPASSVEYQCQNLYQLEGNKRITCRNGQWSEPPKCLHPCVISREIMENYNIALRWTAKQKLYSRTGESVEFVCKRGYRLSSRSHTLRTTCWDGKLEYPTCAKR

## recombinant purified human fH (SCR67) (from UniProt P08603 19-1231) (domain or fragment)
[1]
  Kd: 26 nM
[2]
  Kd: 17.4 nM

## factor H (from UniProt P08603)
[3]
  Kd: 153 nM
[4]
  Kd: 29 nM
